This assay concerns the target T1, rat VEGF A subunit, 164 amino acid mature (secreted) form of the 190 amino acid translation product (rat, UniProt P16612 27-214).
T1 construct: also called VEGF AB, A subunit; A chain
T1 sequence: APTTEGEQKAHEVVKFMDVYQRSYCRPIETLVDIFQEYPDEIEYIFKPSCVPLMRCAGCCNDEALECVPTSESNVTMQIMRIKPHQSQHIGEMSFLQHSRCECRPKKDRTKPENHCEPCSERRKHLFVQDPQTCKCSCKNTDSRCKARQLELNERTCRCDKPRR
The assay is described as follows: purified native VEGF AB reduced and carboxymethylated; subunits separated by C4 reverse phase HPLC and N-terminally sequenced; single 58 kDa band non-reduced against about 23 kDa reduced on SDS-PAGE.

B1: rat VEGF B subunit, 135 amino acid mature form derived from the 158 amino acid full length form (ligand)
chain: ALSAGNNSTEMEVVPFNEVWGRSYCRPMEKLVYIADEHPNEVSHIFSPSCVLLSRCSGCCGDEGLHCVALKTANITMQILKIPPNRDPHSYVEMTFSQDVLCECRPILETTKAERRKTKGKRKQSKTPQTEEPHL
notes: Native subunit purified from GS-9L conditioned medium as part of VEGF AB; also called VEGF AB, B subunit; B chain
As for B1, the binding result was “binds”.
